Test results reported in patent publication US20250205329A1.

Columns and labels:
Test in all cases: BLI (Gator), antibody on protein A probe, F mutant supernatant held 1 h at 60° C.
[1] = biological target: RSV F protein mutant YK001Ag406 (RSV A) (RSV A) (UniProt P11209)
[2] = biological target: RSV F protein mutant YK001Ag410 (AHV80758, RSV B) (RSV B)
[3] = biological target: RSV F protein mutant YK001Ag222 (RSV A) (UniProt P12568)
[4] = biological target: RSV F protein mutant YK001Ag401 (RSV A) (RSV A) (UniProt P11209)
[5] = biological target: RSV F protein mutant YK001Ag402 (RSV A) (UniProt P12568)
[6] = biological target: RSV F protein mutant YK001Ag400 (RSV A) (UniProt P12568)
[7] = biological target: RSV F protein mutant YK001Ag407 (RSV A) (RSV A) (UniProt P11209)
[8] = biological target: DS-CavI (positive control) RSV F protein
[9] = biological target: RSV F protein mutant YK001Ag404 (RSV A) (RSV A) (UniProt P11209)
[10] = biological target: RSV F protein mutant YK001Ag399 (RSV A) (RSV A) (UniProt P11209)
[11] = biological target: RSV F protein mutant YK001Ag403 (RSV A) (UniProt P12568)
[12] = biological target: SC-TM (positive control) RSV F protein
[13] = biological target: RSV F protein mutant YK001Ag411 (AVQ93588.1, RSV B) (RSV B)

Question: What does the source list for monoclonal antibody AM14?
Answer: Activity of antibody AM14 after 1 h at 60° C. (%) [1]: 45.5%; Activity of antibody AM14 after 1 h at 60° C. (%) [2]: 67.7%; Activity of antibody AM14 after 1 h at 60° C. (%) [3]: 1.1%; Activity of antibody AM14 after 1 h at 60° C. (%) [4]: 2.2%; Activity of antibody AM14 after 1 h at 60° C. (%) [5]: 28.6%; Activity of antibody AM14 after 1 h at 60° C. (%) [6]: 1.4%; Activity of antibody AM14 after 1 h at 60° C. (%) [7]: 52.6%; Activity of antibody AM14 after 1 h at 60° C. (%) [8]: 9.9%; Activity of antibody AM14 after 1 h at 60° C. (%) [9]: 60.9%; Activity of antibody AM14 after 1 h at 60° C. (%) [10]: 99.8%; Activity of antibody AM14 after 1 h at 60° C. (%) [11]: 81%; Activity of antibody AM14 after 1 h at 60° C. (%) [12]: 1.3%; Activity of antibody AM14 after 1 h at 60° C. (%) [13]: 69.5%

Question: What does the source list for monoclonal antibody D25?
Answer: Activity of antibody D25 after 1 h at 60° C. (%) [1]: 60.4%; Activity of antibody D25 after 1 h at 60° C. (%) [2]: 88.7%; Activity of antibody D25 after 1 h at 60° C. (%) [3]: 5.8%; Activity of antibody D25 after 1 h at 60° C. (%) [4]: 20.8%; Activity of antibody D25 after 1 h at 60° C. (%) [5]: 84%; Activity of antibody D25 after 1 h at 60° C. (%) [6]: 15.6%; Activity of antibody D25 after 1 h at 60° C. (%) [7]: 77.2%; Activity of antibody D25 after 1 h at 60° C. (%) [8]: 103%; Activity of antibody D25 after 1 h at 60° C. (%) [9]: 75.4%; Activity of antibody D25 after 1 h at 60° C. (%) [10]: 80.8%; Activity of antibody D25 after 1 h at 60° C. (%) [11]: 89.7%; Activity of antibody D25 after 1 h at 60° C. (%) [12]: 21%; Activity of antibody D25 after 1 h at 60° C. (%) [13]: 91.4%
